The text below walks through data of patent publication US12312397B2, “Anti-O2 antibodies and uses thereof” (priority 2016, dated 2025).

One test relates to KPC strain Kp961842_O2. In words: Lethal pneumonia model, KPC strain Kp961842_O2. Format: in vivo, Klebsiella pneumoniae. Particulars: C57/BL6 mice, 2e8 CFU; mAb 2 mg/kg 1 hour post infection; survival. The method, then: (§1) C57/BL6 mice were obtained from Jackson Laboratories and maintained in a special pathogen-free facility. All animal experiments were conducted in accordance with Institutional Animal Care and Use Committee (IACUC) protocol and guidance. K. pneumoniae strains were grown on agar plates overnight and diluted in saline at proper concentration. The inoculum titer was determined by plating a serial dilution of bacteria onto agar plates prior to and post challenge. In acute pneumonia models, C57/BL6 mice were inoculated with 1e4 to 2e8 colony-forming units (CFU) of K. pneumoniae clinical isolates in 50 μl saline intranasally. Anti-K pneumoniae monoclonal antibodies (mAbs) and human IgG1 control antibodies were given 1-24 hour post bacterial challenge (therapeutic dosing). Mouse survival was monitored daily until up to day 8. Survival data of representative experiments were plotted in Graphpad Prism software.
(§2) Mice were challenged with 2e8 CFU of Klebsiella pneumoniae Carbanpenemase (KPC) strain Kp961842_O2 or with 3e8 CFU of KPC strain Kp977778_O2, followed by the administration of anti-O2 mAbs. When administered at a concentration of 2 mg/kg 1 hour post bacterial infection, Class III anti-O2 LPS mAbs KPN42, KPN179-IgG1, and KPS44v2017 protected mice from lethal bacterial challenge with the multi-drug resistant KPC strains Kp961842_O2 (FIG. 6, left panel, and FIG. 10) and Kp977778_O2 (FIG. 6B, right panel).

The test system of test [1] is K. pneumoniae 8570ΔcpsBLux (O2). In words: Opsonophagocytic killing (OPK) assay, O2 capsule mutant. Particulars: for D Capsule OPK O2: capsule mutant strain 8570ΔcpsB lux (O2). Also noted: key to D Capsule OPK O2: +++: Strongly positive activity; +: Positive activity; +/−: Somewhat positive depending upon the test conditions. It is filed as cell-based, Klebsiella pneumoniae. The method, boiled down: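 Luminescent capsule-deficient K. pneumoniae strains were mixed with DMF-differentiated HL-60 cells, 1:10 baby rabbit serum and anti-O2 LPS mAbs (2 ng–2.5 μg/mL), then shaken for 2 h at 37 °C. Killing % came from luminescence (RLU) against no-antibody and negative-control mAb wells, with >40% scored as positive.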

Test [2] relates to O2 LPS activation of NF-κB in RAW264.7-lux cells. In words: LPS neutralization assay (NF-κB luciferase, RAW264.7-lux), O2 LPS. It is filed as cell-based, murine. Set-up: key to LPS Neut O2: +++: Strongly positive activity; +: Positive activity; +/−: Somewhat positive depending upon the test conditions. The note with it: for LPS Neut O2: Table 7 summary. The method, boiled down:
(§3)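 Serially diluted mAbs (human IgG1) pre-mixed 1:1 with LPS at 4 °C for 1 hr, then diluted 1:10 onto RAW264.7-lux cells carrying an NF-κB-driven firefly luciferase; 2.5 h at 37 °C. Luminescence read; % inhibition relative to no-antibody and negative-control mAb wells.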

A further test relates to KPC strain Kp977778_O2. In words: Lethal pneumonia model, KPC strain Kp977778_O2. Particulars: C57/BL6 mice, 3e8 CFU; mAb 2 mg/kg 1 hour post infection; survival. It is filed as in vivo, Klebsiella pneumoniae. The method, then:
as §1, §2

The subject of a further test is K. pneumoniae O2. In words: Mouse protection models (O2), Table 7 summary. It is filed as in vivo, Klebsiella pneumoniae. Set-up: key: +++: Strongly positive activity; +: Positive activity; +/−: Somewhat positive depending upon the test conditions. The note with it: mouse pneumonia models. The method, then:
As described in more detail in below, anti-O2 LPS mAbs were tested for: 1) binding to O1 and O2 LPS (see Example 5); 2) LPS neutralization (LPS-Neut) against O1 and O2 LPS (see Example 7); 3) OPK against capsule mutant strain 43816ΔcpsB lux (O1) and 8570ΔcpsB lux (O2) (see Example 8); and 4) protective activity in pneumonia models (see Example 9). O2 LPS mAbs were subsequently divided into three classes based on their in vitro activities. Class I mAbs were characterized as Binding (O1+O2+)/OPK (O1−O2+); Class 2 mAbs were characterized as Binding (O1+O2+)/OPK (O1+O2+); and Class III mAbs were characterized as Binding (O1±O2+)/OPK (O1−O2+).
as §1, §2

A further test concerns O2 LPS. In words: ELISA binding to O2 LPS. Set-up: species or system Klebsiella pneumoniae. Particulars: secondary screening, ELISA. The method, boiled down: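 Serial dilutions of monoclonal antibodies bound to LPS-coated plates for 1 h at room temperature, detected with alkaline phosphatase-conjugated anti-human IgG (1 h) and pNPP substrate (30 min). Absorbance read at 405 nm; EC50 values derived from binding curves.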
On the technique in general: In an ELISA, binding on a coated surface is turned into a signal by an enzyme label.

The subject of another test is K. pneumoniae O1. In words: Lethal O1 pneumonia model. Set-up: key to Mouse protection models (O1): +++: Strongly positive activity; +: Positive activity; +/−: Somewhat positive depending upon the test conditions. Format: in vivo, Klebsiella pneumoniae. The method, then: as §1
Mice were challenged with 2e8 CFU of Klebsiella pneumoniae Carbanpenemase (KPC) strain Kp961842_O2 or with 3e8 CFU of KPC strain Kp977778_O2, followed by the administration of anti-O2 mAbs. […]

Test [3] concerns O1 LPS activation of NF-κB in RAW264.7-lux cells. In words: LPS neutralization assay (NF-κB luciferase, RAW264.7-lux), O1 LPS. Format: cell-based, murine. Set-up: key to LPS Neut O1: +++: Strongly positive activity; +: Positive activity; +/−: Somewhat positive depending upon the test conditions. The method, boiled down: as §3
The next test concerns O1 LPS. In words: ELISA binding to O1 LPS. Set-up: species or system Klebsiella pneumoniae. The note with it: secondary screening. The method, then: The coated plates were incubated with cell culture supernatants from polyclonally stimulated lymphocytes (AMVBRA) or from monoclonal immortalized B cells (donor interrogations) containing fully human antibodies or with diluted plasma samples (PBMC donor selections) for 1 hour at room temperature. The plates were then washed with PBS containing 0.1% Tween-20 (PBS-T). Secondary antibody was added; either Alkaline Phosphatase-conjugated Goat Anti-Human IgG-AP (Southern Biotech, 2040-04, 1:1000 in PBS-B) or Peroxidase AffiniPure F(ab′)2 Fragment Goat Anti-Human IgG, Fc Fragment Specific (Jackson ImmunoResearch #309 036 098, 1:5000 in PBS-B) were used. Secondary antibodies were typically incubated for 1 h. Plates were washed three times with PBS-T, and P-NitroPhenyl Phosphate (pNPP, Sigma-Aldrich, cat #N2765-100TAB) or Sureblue (KPL, 53-00-03) substrates were added and incubated for 10 min or until the development of a colorimetric reaction. In the case of the HRP substrate Sureblue, the reaction was stopped by adding an equal volume of 0.2N HCl. The absorbance at 405 nm (pNPP) or 450 nm (Sureblue) was measured by a microplate reader (Biotek, Elx808).
The coated plates were incubated with serial dilutions of the monoclonal antibodies for 1 hour at room temperature. The plates were then washed with PBS containing 0.1% Tween-20 (PBS-T). Alkaline Phosphatase-conjugated Goat Anti-Human IgG (Southern Biotech, 2040-04, 1:1000 in PBS-B) was added. The secondary antibody reactions were incubated for 1 h. Plates were washed three times with PBS-T, and P-NitroPhenyl Phosphate (pNPP, Sigma-Aldrich, cat #N2765-100TAB) substrate was added and incubated for 30 min or until the development of a colorimetric reaction. The absorbance at 405 nm was measured by a microplate reader (Biotek, Elx808). The data was plotted with Graphpad Prism software. Representative mAbs from each class were tested for their binding to O1 LPS (FIG. 2A) and O2 LPS (FIG. 2B), and EC50 values were obtained (FIG. 2C). The majority of the anti-O2 LPS mAbs bound to both O1 and O2 LPS by ELISA. […] None of these LPS mAbs bound to the 03, 04, 05, 07, or 012 LPS serotypes (see e.g., FIG. 1A).

Test [4] concerns K. pneumoniae 43816ΔcpsBLux (O1). In words: Opsonophagocytic killing (OPK) assay, O1 capsule mutant. Set-up: key to D Capsule OPK O1: +++: Strongly positive activity; +: Positive activity; +/−: Somewhat positive depending upon the test conditions. Format: cell-based, Klebsiella pneumoniae. The method, then:
OPK activity of anti-O2 LPS mAbs was tested against O1 and O2 strains. Briefly, log phase cultures of luminescent K. pneumoniae strains 8570ΔcpsBLux (O2) and 43816ΔcpsBLux (O1) were diluted to ˜2×10^6 cells/ml. K. pneumoniae cells, 5e5/well dimethylformamide (DMF) differentiated HL-60 cells, cleared baby rabbit serum (1:10 Cedarlane), and a series dilution of antibodies (2 ng-2.5 μg/mL) were mixed in 96-well plates and incubated at 37° C. for two hours with shaking (250 rpm). The relative light units (RLUs) were then measured using a multi-mode microplate reader (Synergy 2, Biotek or envision multilabel plate reader, Perkin Elmer). The percentage of killing was determined by comparing RLU derived from assays with no antibodies to RLU derived from assays with anti-K. pneumoniae mAbs and assays performed with a negative control mAb. Positive killing was determined where the percentage of killing is above 40%.

B1: KPS44v2017: sequence-optimized KPS44, Class III; VH SEQ ID NO: 202, VL SEQ ID NO: 203 (antibody, V domains shown)
VH: EVHLVESGGGLVKPGGSLRLSCAASGFTFKNAWMSWIRQAPGKGLEWVGRVKSEVDGGTIDYGVPVRGRFTISRDDSQGTLSLEMNSLKDDDTGVYYCRAFFSGFPTGYWGQGALVSVSS
VL: QSVLTQPPSLSAAPGQTITIACSGTSSNIGSNYVSWFQQFPGTAPRVLIYENNKRPSGISDRFSGSKSGTSVTLGITGLQTGDEADYYCATFDSSLSAYVFGSGTKVTVL
modifications: Description of Artificial Sequence: SyntheticKPS44-v2017/KPS44-G2/KPS44-G3 VH polypeptide; Description of Artificial Sequence: SyntheticKPS44-v2017/KPS44-G1 VL polypeptide
B1: the “protection from lethal bacterial challenge, Kp961842_O2” value in the test with KPC strain Kp961842_O2 is reported as “protected”. For the same molecule, the “D Capsule OPK O2” value in test [1] is “+++”. Besides, in test [2], the “LPS Neut O2” value was “+/−”. In addition, the “protection from lethal bacterial challenge, Kp977778_O2” value in the test on KPC strain Kp977778_O2 is listed as “protected”. Moreover, the “Mouse protection models (O2)” value with K. pneumoniae O2 is listed as “+++”.

B2: KPL26: Class II anti-O2 antigen human mAb; VH SEQ ID NO: 89, VL SEQ ID NO: 90 (antibody, V domains shown)
VH: EVQLVESGGGLVQSGGSLRLSCETSGFIFGSSWMTWVRQAPGKGLEWVATINPDGSATSYEDSVRGRFAVSRDNAKNSVYLQMNSLRAEDTAVYFCTRNKAYNALDYWGQGTLVTVSS
VL: QSALTQPPSASGSPGQSVTLSCTGTSSDVGGNNYVSWYQQHPGKAPKLIIYEVSKRPSGVPNRFSGSKSGNTASLTVSGLQAEDEADYYCSSFGGSKMFGGGTKLTVL
modifications: Description of Artificial Sequence: SyntheticKPL26 VH polypeptide; Description of Artificial Sequence: SyntheticKPL26 VL polypeptide
B2: the “protection from lethal bacterial challenge, Kp961842_O2” value with KPC strain Kp961842_O2 is recorded as “did not show protection”. In addition, in the test on O2 LPS, the “binding to LPS-O2” value was “confirmed to bind”. In addition, the “protection in lethal O1 pneumonia model” value in the test on K. pneumoniae O1 (mice, survival) was “moderate protection”. Moreover, the “Mouse protection models (O1)” value with K. pneumoniae O1 (mouse pneumonia model, O1) is given as “+”. Moreover, the “OPK activity against O2 strain” value in test [1] (8570ΔcpsBLux (O2), positive killing above 40%) is reported as “induced OPK activity”. The “D Capsule OPK O2” value in test [1] is on record as “+”. Moreover, in test [1] (secondary screening), the “OPK activity against O2 capsule mutant” value was “showed OPK activity”. In [3] (Table 7 summary), the “LPS Neut O1” value was “+”. In [3] (human IgG1 format), the “neutralizing activity against O1 LPS (NF-κB activation)” value is on record as “blocked”. In test [3] (secondary screening), the “neutralization of LPS-O1” value was “neutralize”. Further, the “binding to LPS-O1” value in the test on O1 LPS is given as “confirmed to bind”. Further, the “LPS Neut O2” value in test [2] was “+”. In addition, the “neutralizing activity against O2 LPS (NF-κB activation)” value in test [2] (human IgG1 format) is given as “blocked”. Moreover, in test [2] (secondary screening), the “neutralization of LPS-O2” value is given as “neutralize”. Besides, the “OPK activity against O1 strain” value in test [4] (43816ΔcpsBLux (O1), positive killing above 40%) is recorded as “induced OPK activity”. For the same molecule, the “D Capsule OPK O1” value in [4] (capsule mutant strain 43816ΔcpsB lux (O1)) was “+”. In addition, the “OPK activity against O1 capsule mutant” value in test [4] (secondary screening) is on record as “showed OPK activity”.
